# Source: patent US20190359693A1
# B1: SD1087 (VHH)
# VHH: EVQLVESGGGLVQPGGSLRLSCVISGLSLDTYAVGWFRQAPGKEREGITCISSGHGMTYYADSVKGRFTVSTDNAKNTVYLQMNGLQPEDTARYYCATESRYYCSDNWPAPQRYIYWGQGTQVTVSS
# B2: SD1046 (VHH)
# VHH: EVQLVESGGGLVQAGDSLRISCAASGRTLSIYSMGWFRQAPGKEREFVATIGWNSGRTFYPDSLKGRFTISRDNARNTLYLQMNNLRPEDTAVYYCAAAKGPLRLSSQADYWGQGTQVTVSS
# B3: SD1045 (VHH)
# VHH: EVQLVESGGGLVQAGGSLRLSCAASGSSFSINVMGWYRQAPGKQREMVATITYGGSTNYVDSVKGRFTISRDNAKNTVYLQMNSLKPEDTAVYYCNSRLAQINYWGQGTQVTVSS
# B4: SD1086 (VHH)
# VHH: EVQLVESGGGLVQAGGSLRLSCTASGSISSIDYMRWYRQYPGKHRELVATITSGGAADSRDSVKGRFTVSRGNAANTMYLQMNNLKPEDTAVYYCNAYGLEIGAHWGRGTQVTVSS
# B5: MD1221 (VHH)
# chain: EVQLVESGGGLVQPGGSLRLSCAATGFTLENKAIGWFRQTPGSEREGVLCISKSGSWTYYTDSMRGRFTISRDNAENTVYLQMDSLKPEDTAVYYCATTTAGGGLCWDGTTFSRLASSWGQGTQVTVSSAAAGGGGSGGGGSGGGGSGGGGSGGGGSGGGGSGGGGSEVQLVESGGGLVQPGGSLRLSCAATGFTLENKAIGWFRQTPGSEREGVLCISKSGSWTYYTDSMRGRFTISRDNAENTVYLQMDSLKPEDTAVYYCATTTAGGGLCWDGTTFSRLASSWGQGTQVTVSS
# B6: MD2312 (bispecific antibody)
# chain: EVQLVESGGGLVQAGDSLRLSCAASGPTFGMSAMGWFRQAPGKEREFVAAISGLGNPNYSDDVKGRFTISRENGRNTVYLQMNSLKPEDTAVYYCAQRKVYHVQGGDRPQAYDYWGQGTQVTVSSGGGGSGGGGSEVQLVESGGGLVQAGDSLRISCAASGRTLSIYSMGWFRQAPGKEREFVATIGWNSGRTFYPDSLKGRFTISRDNARNTLYLQMNNLRPEDTAVYYCAAAKGPLRLSSQADYWGQGTQVTVSSGGGGSGGGGSEVQLVESGGGLVQPGGSLRLSCAATGFTLENKAIGWFRQTPGSEREGVLCISKSGSWTYYTDSMRGRFTISRDNAENTVYLQMDSLKPEDTAVYYCATTTAGGGLCWDGTTFSRLASSWGQGTQVTVSS
# B7: MD2401 (protein)
# chain: EVQLVESGGGLVQPGGSLRLSCAVSISIFDIYAMDWYRQAPGKQRDLVATSFRDGSTNYADSVKGRFTISRDNAKNTLYLQMNSLKPEDTAVYLCHVSLYRDPLGVAGGMGVYWGKGALVTVSSAAAGGGGSGGGGSGGGGSGGGGSGGGGSGGGGSGGGGSEVQLVESGGGLVQAGGSLKLSCAASGRTYAMGWFRQAPGKEREFVAHINALGTRTYYSDSVKGRFTISRDNAKNTEYLEMNNLKPEDTAVYYCTAQGQWRAAPVAVAAEYEFWGQGTQVTVSSLINLEGGGGSGGGGSGGGGSGGGGSGGGGSGGGGSGGGGSPAGEVQLVESGGGLVQPGGSLRLSCAATGFTLENKAIGWFRQTPGSEREGVLCISKSGSWTYYTDSMRGRFTISRDNAENTVYLQMDSLKPEDTAVYYCATTTAGGGLCWDGTTFSRLASSWGQGTQVTVSSAAAGGGGSGGGGSGGGGSGGGGSGGGGSGGGGSGGGGSEVQLVESGGGLVQPGGSLRLSCAATGFTLENKAIGWFRQTPGSEREGVLCISKSGSWTYYTDSMRGRFTISRDNAENTVYLQMDSLKPEDTAVYYCATTTAGGGLCWDGTTFSRLASSWGQGTQVTVSS
# Experiments:
# [1] = biological target: HA of B/Brisbane/60/2008 (Victoria) (influenza B virus); assay: cell-based or functional assay
# [2] = biological target: HA of B/Florida/04/2006 (Yamagata) (influenza B virus); assay: cell-based or functional assay
# [3] = biological target: hemagglutinin (HA) of influenza B/Florida/04/06 (Yamagata) (influenza B virus); assay: cell-based or functional assay
# [4] = biological target: hemagglutinin (HA) of influenza B/Harbin/7/94 (Yamagata) (influenza B virus); assay: cell-based or functional assay
# [5] = biological target: hemagglutinin (HA) of influenza B/Lee/40 (Old) (influenza B virus) (UniProt P03460); assay: cell-based or functional assay
# [6] = biological target: hemagglutinin (HA) of influenza B/Malaysia/2506/04 (Victoria) (influenza B virus); assay: cell-based or functional assay
# [7] = biological target: hemagglutinin (HA) of influenza B/Massachusetts/02/12 (Yamagata) (influenza B virus); assay: cell-based or functional assay
# [8] = biological target: HA of H3N2 A/Brisbane/10/2007 (influenza A virus); assay: AlphaLISA competition vs 39.29
# [9] = biological target: HA of B/Brisbane/60/2008 (Victoria) (influenza B virus); assay: AlphaLISA competition vs CR9114
# [10] = biological target: HA of B/Florida/04/2006 (Yamagata) (influenza B virus); assay: AlphaLISA competition vs CR9114
# [11] = biological target: HA of H3N2 A/Brisbane/10/2007 (influenza A virus); assay: AlphaLISA competition vs CR9114
# [12] = biological target: HA of H3N2 A/Brisbane/10/2007 (influenza A virus); assay: AlphaLISA competition vs SD1036
# [13] = biological target: HA of H3N2 A/Brisbane/10/2007 (influenza A virus); assay: AlphaLISA competition vs SD1038
# [14] = biological target: HA of B/Florida/04/2006 (Yamagata) (influenza B virus); assay: AlphaLISA competition vs CR8033
# [15] = biological target: HA of B/Brisbane/60/2008 (Victoria) (influenza B virus); assay: AlphaLISA competition vs CR8071
# [16] = biological target: HA of H3N2 A/Brisbane/10/2007 (influenza A virus); assay: BLI steady state
# [17] = biological target: HA of H7N3 A/NIBRG/60 (A/mallard/NL/12/00) (influenza A virus); assay: BLI steady state
# [18] = biological target: HA of H1N1 A/Brisbane/59/07 (influenza A virus); assay: cell-based or functional assay
# [19] = biological target: HA of H1N1 A/New Caledonia/20/1999 (influenza A virus); assay: cell-based or functional assay
# [20] = biological target: HA of H3N2 A/Brisbane/10/2007 (influenza A virus); assay: cell-based or functional assay
# [21] = biological target: HA of H5N1 A/Vietnam/1194/04 (influenza A virus); assay: cell-based or functional assay
# [22] = biological target: HA of H7N3 A/NIBRG/60 (A/mallard/NL/12/00) (influenza A virus); assay: cell-based or functional assay
# [23] = biological target: hemagglutinin (HA) of influenza A/Brisbane/10/07 (H3N2) (influenza A virus A/Brisbane/10/07 (H3N2)); assay: cell-based or functional assay
# [24] = biological target: hemagglutinin (HA) of influenza A/New York/107/03 (PR8) (influenza A virus A/New York/107/03 (PR8)); assay: cell-based or functional assay
# [25] = biological target: hemagglutinin (HA) of influenza A/chicken/Germany/n/49 (H10N7) (influenza A virus A/chicken/Germany/n/49 (H10N7)); assay: cell-based or functional assay
# [26] = biological target: hemagglutinin (HA) of influenza A/waterfowl/Hong Kong/MPA892/06 (H4) (influenza A virus A/waterfowl/Hong Kong/MPA892/06 (H4)); assay: cell-based or functional assay
# [27] = biological target: HA of H3N2 A/Brisbane/10/2007 (influenza A virus); assay: AlphaLISA competition vs CR8020
# [28] = biological target: HA of H3N2 A/Brisbane/10/2007 (influenza A virus); assay: AlphaLISA competition vs CR8057
# [29] = biological target: HA of H1N1 A/New Caledonia/20/1999 (influenza A virus); assay: BLI steady state
# [30] = biological target: HA of H1N1 A/Puerto Rico/8/34-MA (influenza A virus); assay: cell-based or functional assay
# [31] = biological target: HA of H5N1 A/PR8 H5N1 HK97 (influenza A virus); assay: cell-based or functional assay
# [32] = biological target: HA of B/Florida/04/2006 (Yamagata) (influenza B virus); assay: AlphaLISA competition vs CR8071
# [33] = biological target: hemagglutinin (HA) of influenza virus B/Brisbane/60/08 (Victoria) (influenza B virus); assay: cell-based or functional assay
# [34] = biological target: hemagglutinin (HA) of influenza virus B/Florida/04/06 (Yamagata) (influenza B virus); assay: cell-based or functional assay
# [35] = biological target: hemagglutinin (HA) of influenza virus B/Lee/40 (Old) (influenza B virus) (UniProt P03460); assay: cell-based or functional assay
# [36] = biological target: recombinant HA of B/Brisbane/60/08 (Victoria) (influenza B virus); assay: biolayer interferometry (Octet), steady-state fit, geometric mean, pH 7.4
# [37] = biological target: recombinant HA of B/Florida/04/06 (Yamagata) (influenza B virus); assay: as above
# [38] = biological target: hemagglutinin (HA) of influenza virus H2N2 A/Guiyang/1/57 (influenza A virus); assay: cell-based or functional assay
# [39] = biological target: hemagglutinin (HA) of influenza virus H2N2 A/WF/HK/MPU3156/05 (influenza A virus); assay: cell-based or functional assay
# [40] = biological target: hemagglutinin (HA) of influenza virus H3N2 A/Brisbane/10/07 (influenza A virus); assay: cell-based or functional assay
# [41] = biological target: hemagglutinin (HA) of influenza virus H5N1 A/Vietnam/1194/04 (influenza A virus); assay: cell-based or functional assay
# [42] = biological target: hemagglutinin (HA) of influenza virus H7N3 A/NIBRG/60 (A/mallard/Netherlands/12/00) (influenza A virus); assay: cell-based or functional assay
# [43] = biological target: hemagglutinin (HA) of influenza virus H7N9 A/Anhui/1/13 (influenza A virus); assay: cell-based or functional assay
# [44] = biological target: hemagglutinin (HA) of influenza virus H1N1 A/Puerto Rico/8/34-MA (influenza A virus); assay: cell-based or functional assay
# [45] = biological target: hemagglutinin (HA) of influenza virus H3N2 A/HK/1/68-MA (influenza A virus); assay: cell-based or functional assay
# [46] = biological target: hemagglutinin (HA) of influenza virus H6N1 A/Taiwan/2/2013 (influenza A virus); assay: cell-based or functional assay
binder,measurement,setting,value
B1,VNA titer,[1],10.2 nM
same,hemagglutination inhibition titer,[1],> 50 µg/mL
same,VNA titer,[2],> 1000 nM
same,hemagglutination inhibition titer,[2],> 50 µg/mL
same,VNA IC50,[3],> 1000 nM
same,VNA IC50,[4],> 1000 nM
same,VNA IC50,[5],22 nM
same,VNA IC50,[6],59 nM
same,VNA IC50,[7],1000 nM
same,pIC50,[8],< 7
same,pIC50,[9],7.5
same,pIC50,[10],8.8
same,pIC50,[11],< 7
same,pIC50,[12],< 7
same,pIC50,[13],< 7
same,pIC50,[14],< 7
same,pIC50,[15],< 7
B2,Kd,[16],2 nM
same,Kd,[17],3 nM
same,VNA titer,[1],> 1000 nM
same,VNA titer,[2],> 1000 nM
same,VNA titer,[18],> 1000 nM
same,VNA titer,[19],> 1000 nM
same,VNA titer,[20],6.6 nM
same,VNA titer,[21],> 1000 nM
same,VNA titer,[22],26.4 nM
same,VNA IC50,[23],5 nM
same,VNA IC50,[24],34 nM
same,VNA IC50,[25],13 nM
same,VNA IC50,[26],3 nM
same,pIC50,[27],9.6
same,pIC50,[28],< 7
same,pIC50,[11],9.9
B3,Kd,[29],5 nM
same,VNA titer,[1],> 1000 nM
same,VNA titer,[2],> 1000 nM
same,VNA titer,[19],166 nM
same,VNA titer,[30],206 nM
same,VNA titer,[20],641 nM
same,VNA titer,[31],117 nM
same,VNA titer,[21],63.5 nM
same,VNA titer,[22],> 1000 nM
B4,VNA titer,[1],827 nM
same,VNA titer,[2],> 1000 nM
same,pIC50,[9],8.6
same,pIC50,[10],8
same,pIC50,[14],< 7
same,pIC50,[15],< 7
same,pIC50,[32],< 7
B5,neutralization titer,[33],23.4 nM
same,neutralization titer,[34],76.4 nM
same,neutralization titer,[35],32.5 nM
same,Kd,[36],1.7 nM
same,Kd,[37],1.9 nM
B6,average neutralization titer,[38],< 1000 nM
same,average neutralization titer,[39],21.6 nM
same,average neutralization titer,[40],18.1 nM
same,average neutralization titer,[41],5.8 nM
same,average neutralization titer,[42],7.7 nM
same,average neutralization titer,[43],43.2 nM
B7,average neutralization titer,[34],277 nM
same,average neutralization titer,[35],165 nM
same,average neutralization titer,[44],14.7 nM
same,average neutralization titer,[45],27.7 nM
same,average neutralization titer,[41],27.7 nM
same,average neutralization titer,[46],36.3 nM
same,average neutralization titer,[42],27.7 nM
